Measured values as given in patent US7754689B2, “Finger-1 peptide analogs of the TGF-β superfamily” (Wyeth LLC, priority 2006, dated 2010).
No end group written: not given here.

T1: BMP-12 (UniProt Q7Z4P5 322-450, limits assumed)
T1 construct: also called BMP12/GDF7
T1 sequence (looked up): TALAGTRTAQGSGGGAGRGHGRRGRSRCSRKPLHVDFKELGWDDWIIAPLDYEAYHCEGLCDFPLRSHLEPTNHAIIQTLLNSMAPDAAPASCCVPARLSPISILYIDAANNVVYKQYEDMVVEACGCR


How the values were obtained:
[1] = target: T1, BMP-12; experiment: peptide resin, filter plate; load 2: 50 mM Acetic Acid, 0.1 M NaCl, pH 4.0
Description: (§1) The coupled resins, plus an unconjugated resin for use as a control, were suspended in 16% ethanol, 150 mM NaCl, and 20 mM Tris buffer at pH 7.5 at a 25% v/v ratio (e.g., 25% ethanol, 75% Tris buffer). A Tecan liquid-handling robot was employed to aliquot 200 μL of each slurry into one of eight rows of a 96 well polystyrene filter plate (0.45 μm hydrophilic filters, Whatman catalog number 770-1806). Spinning at 1200 g for 3 min removed the liquid phase, leaving 50 μL of wet resin on the filters. The resins were then equilibrated with the loading buffers listed in Table 6 (K is a coefficient characterizing the strength of protein binding to a particular resin in a particular buffer). […] The resins were loaded by transferring 150 μL from the load plate to the filter plate and then incubating 20 min on a shaking platform to facilitate binding. The filter plate was spun down and the filtrate collected in a 96 well UV plate. The protein concentration in the filtrate, or flow-through, was calculated as $(A280-A320)/1.3$. The filter plate was then washed with 150 μL of 100 mM acetic acid, followed by 150 μL of 4M guanidine-HCl and 50 mM sodium acetate at pH 4.0. The protein concentration was measured in the new filtrate as described above. […] Flow-through and acetic acid elution samples from column 4 of the plate (loaded with MES pH 6) were analyzed on a gel (FIG. 14).

[2] = target: T1, BMP-12; experiment: peptide resin, filter plate; load 10: 50 mM Tris, 0.1 M NaCl, 40% MPD, pH 8.0
Description: as §1

[3] = target: T1, BMP-12; experiment: peptide resin, filter plate; load 4: 25 mM MES pH 6.0
Description: as §1

[4] = target: T1, BMP-12; experiment: peptide resin, filter plate; load 12: 50 mM Tris, 0.1 M NaCl, 20% MPD, pH 8.0
Description: as §1

[5] = target: T1, BMP-12; experiment: peptide resin, filter plate; load 11: 50 mM Tris, 0.25 M NaCl, 30% MPD, pH 8.0
Description: as §1

[6] = target: T1, BMP-12; experiment: peptide resin, filter plate; load 5: 25 mM HEPES pH 7.0
Description: as §1

[7] = target: T1, BMP-12; experiment: peptide resin, filter plate; load 1: 50 mM Acetic Acid, 0.1 M NaCl, pH 2.9
Description: as §1

[8] = target: T1, BMP-12; experiment: peptide resin, filter plate; load 6: 1M CHES pH 9.7
Description: as §1

[9] = target: T1, BMP-12; experiment: peptide resin, filter plate; load 3: 25 mM Na Acetate pH 5.0
Description: as §1

Row | Binder | 100 mM HAc elution K [1] | 100 mM HAc elution conc [1] | 4M Gnd, 50 mM NaAc pH 4 Strip Conc [1] | Flow-through K [1] | Flow-through conc [1] | Flow-through K [2] | Flow-through conc [2] | 100 mM HAc elution K [3] | 100 mM HAc elution conc [3] | 4M Gnd, 50 mM NaAc pH 4 Strip Conc [3] | Flow-through K [3] | Flow-through conc [3] | Flow-through K [4] | Flow-through conc [4] | Flow-through K [5] | Flow-through conc [5] | 100 mM HAc elution K [6] | 100 mM HAc elution conc [6] | 4M Gnd, 50 mM NaAc pH 4 Strip Conc [6] | Flow-through K [6] | other results
1 | Ac-ELGWDDWIIAPLDYEAYHSEGLK [BMP12 N-trun_1S peptide 749] | 4 | 0.175 mg/mL | 0.196 mg/ml | 26 | 0.05 mg/mL | 0 | 0.434 mg/mL | 1 | 0.321 mg/mL | 0.079 mg/ml | 56 | 0.025 mg/mL | 1 | 0.404 mg/mL | 0 | 0.416 mg/mL | 1 | 0.28 mg/mL | 0.093 mg/ml | 9 | Flow-through conc [6]: 0.116 mg/mL; 100 mM HAc elution K [7]: 6; 100 mM HAc elution conc [7]: 0.098 mg/mL; 4M Gnd, 50 mM NaAc pH 4 Strip Conc [7]: 0.141 mg/ml; Flow-through K [7]: 5; Flow-through conc [7]: 0.175 mg/mL; Flow-through K [8]: -1; Flow-through conc [8]: 0.653 mg/mL; 100 mM HAc elution K [9]: 2; 100 mM HAc elution conc [9]: 0.275 mg/mL; 4M Gnd, 50 mM NaAc pH 4 Strip Conc [9]: 0.126 mg/ml; Flow-through K [9]: 42; Flow-through conc [9]: 0.032 mg/mL
2 | Ac-SDVGWNDWIVAPPGYHAFYCHGEK [BMP2 N-trun peptide 750] | 2 | 0.194 mg/mL | 0.087 mg/ml | 6 | 0.164 mg/mL | 0 | 0.423 mg/mL | 1 | 0.311 mg/mL | 0.06 mg/ml | 36 | 0.037 mg/mL | 1 | 0.364 mg/mL | 1 | 0.342 mg/mL | 0 | 0.187 mg/mL | 0.046 mg/ml | 2 | Flow-through conc [6]: 0.29 mg/mL; 100 mM HAc elution K [7]: 1; 100 mM HAc elution conc [7]: 0.096 mg/mL; 4M Gnd, 50 mM NaAc pH 4 Strip Conc [7]: 0.044 mg/ml; Flow-through K [7]: 1; Flow-through conc [7]: 0.337 mg/mL; Flow-through K [8]: -1; Flow-through conc [8]: 0.577 mg/mL; 100 mM HAc elution K [9]: 1; 100 mM HAc elution conc [9]: 0.226 mg/mL; 4M Gnd, 50 mM NaAc pH 4 Strip Conc [9]: 0.072 mg/ml; Flow-through K [9]: 6; Flow-through conc [9]: 0.163 mg/mL
3 | Ac-SDVGWNDWIVAPPGYHAFYSHGEK [BMP2 N-trun 1S peptide 751] | 1 | 0.219 mg/mL | 0.089 mg/ml | 6 | 0.156 mg/mL | 0 | 0.435 mg/mL | 1 | 0.355 mg/mL | 0.053 mg/ml | 38 | 0.035 mg/mL | 1 | 0.411 mg/mL | 0 | 0.425 mg/mL | 0 | 0.254 mg/mL | 0.044 mg/ml | 4 | Flow-through conc [6]: 0.216 mg/mL; 100 mM HAc elution K [7]: 1; 100 mM HAc elution conc [7]: 0.102 mg/mL; 4M Gnd, 50 mM NaAc pH 4 Strip Conc [7]: 0.046 mg/ml; Flow-through K [7]: 1; Flow-through conc [7]: 0.349 mg/mL; Flow-through K [8]: -1; Flow-through conc [8]: 0.647 mg/mL; 100 mM HAc elution K [9]: 1; 100 mM HAc elution conc [9]: 0.285 mg/mL; 4M Gnd, 50 mM NaAc pH 4 Strip Conc [9]: 0.07 mg/ml; Flow-through K [9]: 9; Flow-through conc [9]: 0.124 mg/mL
4 | Ac-VAPPGYHAFYSHGEK [BMP2 N-trunc_2 peptide 745] | 1 | 0.057 mg/mL | 0.026 mg/ml | 1 | 0.41 mg/mL | 0 | 0.464 mg/mL | -1 | 0.104 mg/mL | 0.027 mg/ml | 0 | 0.426 mg/mL | 0 | 0.435 mg/mL | 0 | 0.431 mg/mL | 0 | 0.077 mg/mL | 0.021 mg/ml | 1 | Flow-through conc [6]: 0.397 mg/mL; 100 mM HAc elution K [7]: 1; 100 mM HAc elution conc [7]: 0.058 mg/mL; 4M Gnd, 50 mM NaAc pH 4 Strip Conc [7]: 0.024 mg/ml; Flow-through K [7]: 1; Flow-through conc [7]: 0.397 mg/mL; Flow-through K [8]: -1; Flow-through conc [8]: 0.626 mg/mL; 100 mM HAc elution K [9]: 0; 100 mM HAc elution conc [9]: 0.073 mg/mL; 4M Gnd, 50 mM NaAc pH 4 Strip Conc [9]: 0.026 mg/ml; Flow-through K [9]: 1; Flow-through conc [9]: 0.407 mg/mL
